Legend:
FcyRIIb [1] = biological target: FcyRIIb (UniProt P31994); experiment: cell-based competitive TR-FRET assay (CisBio Bioassays); reference: Construct 5 (SIF3)
FcyRIIIa = FcyRIIIa (UniProt P08637); experiment: cell-based competitive TR-FRET
FcyRIIa = FcyRIIa (UniProt P12318); experiment: cell-based competitive TR-FRET
FcyRIIb [2] = biological target: FcyRIIb (UniProt P31994); experiment: cell-based competitive TR-FRET
FcγRIIIa = FcγRIIIa (UniProt P08637); experiment: cell-based competitive TR-FRET
FcγRIIa = FcγRIIa (UniProt P12318); experiment: cell-based competitive TR-FRET
FcγRIIb = FcγRIIb (UniProt P31994); experiment: cell-based competitive TR-FRET

Substance	fold increase in binding compared to Construct 5 (SIF3) (FcyRIIb [1])	EC50 (FcyRIIIa)	EC50 (FcyRIIa)	EC50 (FcyRIIb [2])	EC50 (FcγRIIIa)	EC50 (FcγRIIa)	EC50 (FcγRIIb)
Construct 5-FcyRIIb+ mutant (Construct 5 backbone with S267E/L328F) (from UniProt P01857 27-328; P0DOX5 223-449)	> 300 fold	26.7 nM	0.126 nM	0.0165 nM	–	–	–
IgG1	–	–	–	–	96.2 nM	502 nM	1690 nM
